Data reported in publication PMC3683130.

Molecular target: FLAG-tagged PUD-1 (C. elegans)
Assay: affinity purification with mass spectrometry; anti-FLAG IP (M2 beads) from worms with single-copy FLAG::PUD-1, N2 as control; eluted with 3xFLAG peptide; silver-stained bands cut and identified by LC-MS/MS

Sequence of FLAG-tagged PUD-1 (C. elegans) (main, as listed by the source): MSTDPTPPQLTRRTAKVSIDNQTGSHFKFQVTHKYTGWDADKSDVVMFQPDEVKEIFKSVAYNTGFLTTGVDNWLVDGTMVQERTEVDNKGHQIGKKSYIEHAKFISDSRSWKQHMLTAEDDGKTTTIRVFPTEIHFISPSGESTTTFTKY

Endogenous PUD-2 (natural protein)
stoichiometry N: 1
